Measured values: patent publication US20150368338A1 (Janssen / Centocor, published 2015)

T1: IFN-αF (human, UniProt P01568 24-189)
T1 construct: Recombinant, HEK293; also called IFN-α21
T1 chain: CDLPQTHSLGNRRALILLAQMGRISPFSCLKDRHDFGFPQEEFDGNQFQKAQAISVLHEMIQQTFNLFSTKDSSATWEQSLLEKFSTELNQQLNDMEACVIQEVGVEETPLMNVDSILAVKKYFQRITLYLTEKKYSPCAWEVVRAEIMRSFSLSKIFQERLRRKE


Tests used:
Assay in all cases: ProteOn SPR, cell supernatant;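 further: each binding measurement used just a single antigen concentration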
human IFN-ω = target: T2, human IFN-ω (human, UniProt P05000 24-195)
T2 construct: Recombinant, HEK293; also called interferon omega
Description: (§1) To increase the assay throughput, only one concentration of the individual antigen was used.

IFN-αC = target: T3, IFN-αC (human, UniProt P01566 24-189)
T3 construct: Recombinant, HEK293; also called IFN-α10
Description: as §1

IFN-αF = target: T1, IFN-αF
Description: as §1

IFN-αJ1 = target: T4, IFN-αJ1 (human, UniProt P01567 24-189)
T4 construct: Recombinant, HEK293; also called IFN-α7
Description: as §1

IFN-α4a = target: T5, IFN-α4a (human, UniProt P05014 24-189)
T5 construct: Recombinant, HEK293; also called IFN-αM1
Description: as §1

IFN-αG = target: T6, IFN-αG (human, UniProt P01569 24-189)
T6 construct: Recombinant, HEK293; also called IFN-α5
Description: as §1

IFN-αWA = target: T7, IFN-αWA (human, UniProt P05015 24-189)
T7 construct: Recombinant, HEK293; also called IFN-α16
Description: as §1

Binder | Kd (human IFN-ω) | Kd (IFN-αC) | Kd (IFN-αF) | Kd (IFN-αJ1) | Kd (IFN-α4a) | Kd (IFN-αG) | Kd (IFN-αWA)
IFWM3379 (antibody, IgG1, V domains shown, mAb; IgG1/kappa said of the parent and of selected mAbs; also called IFWB3114) VH: EVQLVQSGAEVKKPGESLKISCKGSGYSFTSYWIGWVRQMPGKGLEWMGIIDPSDSDTRYSPSFQGQVTISADKSISTAYLQWSSLKASDTAMYYCARHPGLAWAPDFDYWGQGTLVTVSS VL: DIQMTQSPSSLSASVGDRVTITCRASQSIDGSLNWYQQKPGKAPKLLIYFASSLQSGVPSRFSGSGSGTDFTLTISSLQPEDFATYYCQQSYDFPLTFGQGTKVEIK | 0.015 nM | 0.013 nM | 0.013 nM | 0.033 nM | 0.072 nM | 0.013 nM | 0.023 nM
IFWM3293 (antibody, IgG1, V domains shown, mAb; IgG1/kappa said of the parent and of selected mAbs; also called IFWB3028) VH: EVQLVQSGAEVKKPGESLKISCKGSGYSFTSYWIGWVRQMPGKGLEWMGIIDPSDSDTRYSPSFQGQVTISADKSISTAYLQWSSLKASDTAMYYCARHPGLAWAPDFDYWGQGTLVTVSS VL: DIQMTQSPSSLSASVGDRVTITCRASQSIDEFLNWYQQKPGKAPKLLIYFASSLQSGVPSRFSGSGSGTDFTLTISSLQPEDFATYYCQQAHSFPLTFGQGTKVEIK | 0.029 nM | 0.025 nM | 0.017 nM | 0.062 nM | 0.166 nM | 0.037 nM | 0.046 nM
IFWM3380 (antibody, IgG1, V domains shown, mAb; IgG1/kappa said of the parent and of selected mAbs; also called IFWB3115) VH: EVQLVQSGAEVKKPGESLKISCKGSGYSFTSYWIGWVRQMPGKGLEWMGIIDPSDSDTRYSPSFQGQVTISADKSISTAYLQWSSLKASDTAMYYCARHPGLAWAPDFDYWGQGTLVTVSS VL: DIQMTQSPSSLSASVGDRVTITCRASQSINRFLNWYQQKPGKAPKLLIYAASSLQSGVPSRFSGSGSGTDFTLTISSLQPEDFATYYCQQAIDLPFTFGQGTKVEIK | 0.025 nM | 0.046 nM | 0.032 nM | 0.076 nM | 0.088 nM | 0.07 nM | 0.059 nM
IFWM3381 (antibody, IgG1, V domains shown, mAb; IgG1/kappa said of the parent and of selected mAbs; also called IFWB3116) VH: EVQLVQSGAEVKKPGESLKISCKGSGYSFTSYWIGWVRQMPGKGLEWMGIIDPSDSDTRYSPSFQGQVTISADKSISTAYLQWSSLKASDTAMYYCARHPGLAWAPDFDYWGQGTLVTVSS VL: DIQMTQSPSSLSASVGDRVTITCRASQSIGSFLNWYQQKPGKAPKLLIYFASSLQSGVPSRFSGSGSGTDFTLTISSLQPEDFATYYCQQSYSIPITFGQGTKVEIK | 0.045 nM | 0.079 nM | 0.092 nM | 0.121 nM | 0.171 nM | 0.053 nM | 0.067 nM
IFWM3382 (antibody, IgG1, V domains shown, mAb; IgG1/kappa said of the parent and of selected mAbs; also called IFWB3117) VH: EVQLVQSGAEVKKPGESLKISCKGSGYSFTSYWIGWVRQMPGKGLEWMGIIDPSDSDTRYSPSFQGQVTISADKSISTAYLQWSSLKASDTAMYYCARHPGLAWAPDFDYWGQGTLVTVSS VL: DIQMTQSPSSLSASVGDRVTITCRASQSIGSALNWYQQKPGKAPKLLIYFASSLQSGVPSRFSGSGSGTDFTLTISSLQPEDFATYYCQQSYDFPLTFGQGTKVEIK | 0.03 nM | 0.024 nM | 0.02 nM | 0.037 nM | 0.075 nM | 0.03 nM | 0.032 nM
IFWM3383 (antibody, IgG1, V domains shown, mAb; IgG1/kappa said of the parent and of selected mAbs; also called IFWB3118) VH: EVQLVQSGAEVKKPGESLKISCKGSGYSFTSYWIGWVRQMPGKGLEWMGIIDPSDSDTRYSPSFQGQVTISADKSISTAYLQWSSLKASDTAMYYCARHPGLAWAPDFDYWGQGTLVTVSS VL: DIQMTQSPSSLSASVGDRVTITCRASQSISKFLNWYQQKPGKAPKLLIYFASSLQSGVPSRFSGSGSGTDFTLTISSLQPEDFATYYCQQSNTLPFTFGQGTKVEIK | 0.028 nM | 0.069 nM | 0.06 nM | 0.086 nM | 0.143 nM | 0.084 nM | 0.064 nM
IFWM3401 (antibody, IgG1, V domains shown, mAb; IgG1/kappa said of the parent and of selected mAbs; also called IFWB3136) VH: EVQLVQSGAEVKKPGESLKISCKGSGYSFTSYWIGWVRQMPGKGLEWMGIIDPSDSDTRYSPSFQGQVTISADKSISTAYLQWSSLKASDTAMYYCARHPGLAWAPDFDYWGQGTLVTVSS VL: DIQMTQSPSSLSASVGDRVTITCRASQSITNHLNWYQQKPGKAPKLLIYFASSLQSGVPSRFSGSGSGTDFTLTISSLQPEDFATYYCQQAHNFPLTFGQGTKVEIK | 0.062 nM | – | 0.028 nM | 0.078 nM | 0.195 nM | 0.067 nM | 0.076 nM
